Our source for the stoichiometry N values is paper PMC8500918.

By stoichiometry N is commonly meant the number of molecules, sites or subunits per partner or assembly.

The assay has as its target Cadherin-11 extracellular domain 1 (EC1), wild type. Put plainly: NMR.

Cadherin-11 extracellular domain 1 (EC1), wild type, sequence (P55288 1-98): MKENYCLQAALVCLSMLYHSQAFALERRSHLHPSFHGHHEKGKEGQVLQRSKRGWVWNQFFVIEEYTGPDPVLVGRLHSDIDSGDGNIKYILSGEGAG

In turn, “Cadherin-11 extracellular domain 1 (EC1), wild type (domain or fragment)” registered a stoichiometry N of 2.
